The text below walks through data of publication PMC8900817, “Highlighting the factors governing transglycosylation in the GH5_5 endo-1,4-β-glucanase RBcel1” (Acta Crystallographica. Section D, Structural Biology, 2022).

Data set [1] has as its target T1, RBcel1 (uncultured bacterium, UniProt Z9EI17H729, E135Q).
T1 construct: 321 residues
T1 sequence (Z9EI17H729 1-321 E135Q): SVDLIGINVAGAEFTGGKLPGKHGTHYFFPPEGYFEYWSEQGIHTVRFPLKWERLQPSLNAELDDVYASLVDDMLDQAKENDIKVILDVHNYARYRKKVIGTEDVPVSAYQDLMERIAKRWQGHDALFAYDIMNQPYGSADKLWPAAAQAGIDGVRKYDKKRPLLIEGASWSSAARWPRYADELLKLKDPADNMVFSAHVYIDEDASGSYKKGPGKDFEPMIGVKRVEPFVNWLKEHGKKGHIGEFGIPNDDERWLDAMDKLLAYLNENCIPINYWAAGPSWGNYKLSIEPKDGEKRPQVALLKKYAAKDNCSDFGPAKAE
The experiment in a line: X-ray crystal structure, […] Å. Format: binding. Particulars: co-crystal with 1 mM G3, pH 7.4; subsites +1 to +3 (monomer A) and -4 to -2 (monomer B).

Data set [2] has as its target T2, RBcel1 (uncultured bacterium, UniProt Z9EI17H729, Y201F).
T2 sequence (Z9EI17H729 1-321 Y201F): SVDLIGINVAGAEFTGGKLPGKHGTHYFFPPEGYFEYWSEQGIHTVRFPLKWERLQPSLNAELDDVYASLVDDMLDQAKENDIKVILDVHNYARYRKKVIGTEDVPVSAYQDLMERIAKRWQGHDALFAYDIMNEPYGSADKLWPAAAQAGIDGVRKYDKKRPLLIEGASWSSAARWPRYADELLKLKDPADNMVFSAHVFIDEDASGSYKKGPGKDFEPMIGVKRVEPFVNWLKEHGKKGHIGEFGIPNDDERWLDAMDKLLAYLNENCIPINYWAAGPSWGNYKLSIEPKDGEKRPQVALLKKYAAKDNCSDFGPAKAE
Kind of data set: X-ray crystal structure, […] Å. Particulars: co-crystal with 1 mM G3, pH 7; covalent to Glu245 (monomer D, occupancy 0.13); also +1 to +3 subsites (monomer C).

Substrate in data set [3]: O=[N+]([O-])c1ccc(O[C@@H]2O[C@H](CO)[C@@H](O[C@@H]3O[C@H](CO)[C@@H](O[C@@H]4O[C@H](CO)[C@@H](O)[C@H](O)[C@H]4O)[C@H](O)[C@H]3O)[C@H](O)[C@H]2O)c(Cl)c1
Kind of data set: purified protein. Format: biochemical, uncultured bacterium. Particulars: 20 mM sodium phosphate pH 6.5, 37°C.

Substrate in data set [4]: O=[N+]([O-])c1ccc(O[C@@H]2O[C@H](CO)[C@@H](O[C@@H]3O[C@H](CO)[C@@H](O[C@@H]4O[C@H](CO)[C@@H](O[C@@H]5O[C@H](CO)[C@@H](O[C@@H]6O[C@H](CO)[C@@H](O)[C@H](O)[C@H]6O)[C@H](O)[C@H]5O)[C@H](O)[C@H]4O)[C@H](O)[C@H]3O)[C@H](O)[C@H]2O)c(Cl)c1
The experiment in a line: purified protein. Format: biochemical, uncultured bacterium. Conditions: 20 mM sodium phosphate pH 6.5, 37°C, apparent parameters, printed kcat disagrees with printed kcat/Km (tenfold).

Substrate in data set [5]: O=[N+]([O-])c1ccc(O[C@@H]2O[C@H](CO)[C@@H](O[C@@H]3O[C@H](CO)[C@@H](O[C@@H]4O[C@H](CO)[C@@H](O[C@@H]5O[C@H](CO)[C@@H](O)[C@H](O)[C@H]5O)[C@H](O)[C@H]4O)[C@H](O)[C@H]3O)[C@H](O)[C@H]2O)c(Cl)c1
Kind of data set: purified protein. Format: biochemical, uncultured bacterium. Conditions: 20 mM sodium phosphate pH 6.5, 37°C, apparent parameters, text b31 prints µM, table mM (agrees with kcat/Km).

[6] abbreviates: 36 µM enzyme, methods name the substrate ClPNP β-G1, results ClPNP β-G3.
Setting [7] is: apparent parameters, text b31 prints µM, table mM (agrees with kcat/Km).
[8] abbreviates: 22 µM enzyme, methods name the substrate ClPNP β-G1, results ClPNP β-G3.

As to `OC[C@H]1O[C@@H](O[C@H]2[C@H](O)[C@@H](O)[C@H](O[C@H]3[C@H](O)[C@@H](O)C(O)O[C@@H]3CO)O[C@@H]2CO)[C@H](O)[C@@H](O)[C@@H]1O` (stereo partly shown) [G3, cellotriose], in data set [1], the “X-ray crystal structure, 1.73 Å” value is “each in complex with a differently positioned G3 molecule”. Moreover, the “X-ray crystal structure, 1.75 Å” value in data set [2] was “G3 and G4 were placed in the negative subsites”.

B1: RBcel1 (uncultured bacterium; E135Q) (protein)
chain: SVDLIGINVAGAEFTGGKLPGKHGTHYFFPPEGYFEYWSEQGIHTVRFPLKWERLQPSLNAELDDVYASLVDDMLDQAKENDIKVILDVHNYARYRKKVIGTEDVPVSAYQDLMERIAKRWQGHDALFAYDIMNQPYGSADKLWPAAAQAGIDGVRKYDKKRPLLIEGASWSSAARWPRYADELLKLKDPADNMVFSAHVYIDEDASGSYKKGPGKDFEPMIGVKRVEPFVNWLKEHGKKGHIGEFGIPNDDERWLDAMDKLLAYLNENCIPINYWAAGPSWGNYKLSIEPKDGEKRPQVALLKKYAAKDNCSDFGPAKAE
notes: 321 residues
The term Km denotes the substrate concentration at which the rate is half of its maximum. By kcat is commonly meant the maximal rate divided by the concentration of active sites. Consider B1, for which, in data set [3] (setting [6]), the Michaelis constant (Km) amounted to 263 ± 41 µM and the catalytic constant (kcat) is given as 0.219 ± 0.009 × 10^-3 min^-1.

B2: RBcel1 (uncultured bacterium) (protein)
chain: SVDLIGINVAGAEFTGGKLPGKHGTHYFFPPEGYFEYWSEQGIHTVRFPLKWERLQPSLNAELDDVYASLVDDMLDQAKENDIKVILDVHNYARYRKKVIGTEDVPVSAYQDLMERIAKRWQGHDALFAYDIMNEPYGSADKLWPAAAQAGIDGVRKYDKKRPLLIEGASWSSAARWPRYADELLKLKDPADNMVFSAHVYIDEDASGSYKKGPGKDFEPMIGVKRVEPFVNWLKEHGKKGHIGEFGIPNDDERWLDAMDKLLAYLNENCIPINYWAAGPSWGNYKLSIEPKDGEKRPQVALLKKYAAKDNCSDFGPAKAE
notes: 321 residues
What is called kcat/Km is the turnover number divided by the Michaelis constant. Regarding B2, the Km in data set [3] (setting [7]) is 2370 ± 260 µM; in data set [4] it was 0.34 ± 0.05 mM; in data set [5] it was 300 ± 30 µM. The turnover number (kcat) in data set [3] (setting [7]) stood at 0.52 ± 0.02 s⁻¹; in data set [5], 0.58 ± 0.01 s⁻¹. Further, the catalytic efficiency (kcat/Km) amounted to 220 ± 20 M⁻¹ s⁻¹ in data set [3] (setting [7]) and 1880 ± 190 M⁻¹ s⁻¹ in data set [5].

B3: RBcel1 (uncultured bacterium; Y201F) (protein)
chain: SVDLIGINVAGAEFTGGKLPGKHGTHYFFPPEGYFEYWSEQGIHTVRFPLKWERLQPSLNAELDDVYASLVDDMLDQAKENDIKVILDVHNYARYRKKVIGTEDVPVSAYQDLMERIAKRWQGHDALFAYDIMNEPYGSADKLWPAAAQAGIDGVRKYDKKRPLLIEGASWSSAARWPRYADELLKLKDPADNMVFSAHVFIDEDASGSYKKGPGKDFEPMIGVKRVEPFVNWLKEHGKKGHIGEFGIPNDDERWLDAMDKLLAYLNENCIPINYWAAGPSWGNYKLSIEPKDGEKRPQVALLKKYAAKDNCSDFGPAKAE
notes: 321 residues
As for B3, in data set [3] (setting [8]), the Michaelis-Menten constant (Km) is 77 ± 10 µM and the turnover number (kcat) is given as 0.194 ± 0.023 × 10^-3 min^-1.
